US20220315554A1, “COMPOUNDS COMPRISING A […] LIGAND AND USE THEREOF” (priority 2019, published 2022)
Numbered stars: 1 amine (or outer) side, 2 acyl side, 3 side chain; on linkers, the order of the positions; unused ones are H or OH. Bridge positions count the residues as written; N and C are the ends. * marks the point of attachment. mXylylene = c1cc(C[*:1])cc(C[*:2])c1; Hexanoyl = CCCCCC(=O)*

T1: Recombinant human FAP (R&D systems, #3715-SE) (human)
T1 sequence: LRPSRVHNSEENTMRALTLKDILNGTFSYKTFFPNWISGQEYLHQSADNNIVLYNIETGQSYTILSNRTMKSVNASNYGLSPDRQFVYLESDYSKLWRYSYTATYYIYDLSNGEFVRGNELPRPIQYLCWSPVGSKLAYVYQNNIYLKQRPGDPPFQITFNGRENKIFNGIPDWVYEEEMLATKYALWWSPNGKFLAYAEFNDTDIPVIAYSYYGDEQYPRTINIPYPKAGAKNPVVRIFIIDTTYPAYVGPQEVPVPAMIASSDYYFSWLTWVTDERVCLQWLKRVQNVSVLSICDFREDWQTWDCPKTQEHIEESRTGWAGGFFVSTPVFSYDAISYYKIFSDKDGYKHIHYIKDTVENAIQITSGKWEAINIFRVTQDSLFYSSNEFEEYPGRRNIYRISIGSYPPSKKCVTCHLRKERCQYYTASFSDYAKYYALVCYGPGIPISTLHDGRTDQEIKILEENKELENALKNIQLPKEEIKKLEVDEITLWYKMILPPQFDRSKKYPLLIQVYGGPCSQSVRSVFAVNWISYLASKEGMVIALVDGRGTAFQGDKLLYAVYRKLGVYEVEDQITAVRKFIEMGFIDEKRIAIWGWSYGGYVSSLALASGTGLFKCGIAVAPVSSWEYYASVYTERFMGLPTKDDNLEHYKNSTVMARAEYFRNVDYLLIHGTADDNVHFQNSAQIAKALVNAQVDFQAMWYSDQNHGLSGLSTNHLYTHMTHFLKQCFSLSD


Columns and labels:
[1] = target: human fibroblast activation protein (FAP) on FAP-expressing human WI-38 fibroblasts (human); test: competition FACS, WI-38 cells, vs Cy5-labeled compound; D: pIC50 ≤6.0; conditions: remark: other sources report otherwise
[2] = target: T1, Recombinant human FAP (R&D systems, #3715-SE) (human)
[3] = target: recombinant human PREP (R&D systems, #4308-SE) (human)
[4] = target: Recombinant human DPP4 (R&D systems, #9168-SE) (human)

recombinant human PREP (R&D systems, #4308-SE) (human), sequence (chain, as listed by the source limits assumed): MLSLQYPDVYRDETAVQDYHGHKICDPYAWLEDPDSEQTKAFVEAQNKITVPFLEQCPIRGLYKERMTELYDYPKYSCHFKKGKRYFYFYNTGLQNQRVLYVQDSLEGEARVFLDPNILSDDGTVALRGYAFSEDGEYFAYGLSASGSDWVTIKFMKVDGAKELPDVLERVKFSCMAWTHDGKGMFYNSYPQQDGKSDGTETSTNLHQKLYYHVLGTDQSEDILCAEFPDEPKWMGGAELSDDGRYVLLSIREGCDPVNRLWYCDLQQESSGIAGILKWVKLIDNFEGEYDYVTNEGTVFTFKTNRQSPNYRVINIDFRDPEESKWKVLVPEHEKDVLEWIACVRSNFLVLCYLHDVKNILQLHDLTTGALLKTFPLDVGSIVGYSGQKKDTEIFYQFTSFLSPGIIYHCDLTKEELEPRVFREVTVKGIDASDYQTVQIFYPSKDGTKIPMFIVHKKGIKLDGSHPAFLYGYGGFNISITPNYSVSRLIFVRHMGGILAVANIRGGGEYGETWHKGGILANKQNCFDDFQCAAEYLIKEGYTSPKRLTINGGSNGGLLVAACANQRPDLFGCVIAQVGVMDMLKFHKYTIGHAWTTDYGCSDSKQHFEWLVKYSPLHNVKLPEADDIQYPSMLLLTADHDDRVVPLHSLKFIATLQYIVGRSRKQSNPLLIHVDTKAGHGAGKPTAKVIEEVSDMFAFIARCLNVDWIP

Row | pIC50 Category (FACS) [1] [pIC50] | pIC50 Category (Activity) [2] [pIC50] | pIC50 (PREP) [3] [pIC50] | pIC50 (DPP4) [4] [pIC50] | Binder
1 | < 6 | < 6 | – | – | Hexanoyl-CPPTEFCD-NH2 (linker 1-7 via mXylylene; not fully specified (residue 5); printed as Hex-[Cys(3MeBn)-Pro-Pro-Thr-Glu(NH-Apr-DOTA')-Phe-Cys]-Asp-NH2) [Hex-[Cys(3MeBn)-Pro-Pro-Thr-Glu(NH-Apr-DOTA')-Phe-Cys]-Asp-NH2]
2 | – | – | < 6 | < 6 | CPPTQFCD (N-terminal Hex; Cys1 and Cys7 linked as thioethers via tMeBn(DOTA-AET); C-terminal NH2) [Hex-[Cys(tMeBn(DOTA-AET))-Pro-Pro-Thr-Gln-Phe-Cys]-Asp-NH2 (3BP-3426)]
3 | < 6 | – | – | – | Hexanoyl-CPPTEAC-NH2 (linker 1-7 via mXylylene; SMILES CCCCCC(=O)N[C@H]1CSCc2cccc(c2)CSC[C@@H](C(N)=O)NC(=O)[C@H](C)NC(=O)[C@H](CCC(=O)O)NC(=O)[C@H]([C@@H](C)O)NC(=O)[C@@H]2CCCN2C(=O)[C@@H]2CCCN2C1=O) [Hex-[Cys(3MeBn)-Pro-Pro-Thr-Glu-Ala-Cys]-NH2]
4 | – | – | < 6 | < 6 | CPPTEFC (N-terminal Hex; Cys1 and Cys7 linked as thioethers via 3MeBn; C-terminal NH2) [Hex-[Cys(3MeBn)-Pro-Pro-Thr-Glu-Phe-Cys]-NH2 (3BP-3287)]
5 | – | – | < 6 | < 6 | CPPTQFCD (N-terminal Hex; Cys1 and Cys7 linked as thioethers via 3MeBn; C-terminal NH2) [Hex-[Cys(3MeBn)-Pro-Pro-Thr-Gln-Phe-Cys]-Asp-NH2 (3BP-3476)]
